The text below walks through data of patent publication US20200223915A1 (OSAKA UNIVERSITY, published 2020).

The labels stand for the following.
T1: wild-type human Claudin 5 protein (human, UniProt O00501 1-218)
T1 construct: also called hCLDN5; CLDN 5
T1 sequence: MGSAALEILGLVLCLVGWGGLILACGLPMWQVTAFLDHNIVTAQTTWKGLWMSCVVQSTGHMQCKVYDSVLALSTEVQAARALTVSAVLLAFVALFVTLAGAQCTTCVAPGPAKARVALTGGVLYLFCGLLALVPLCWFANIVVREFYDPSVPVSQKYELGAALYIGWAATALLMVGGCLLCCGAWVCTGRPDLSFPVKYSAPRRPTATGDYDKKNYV

B1: antibody 3A5 (antibody, IgG2a, V domains shown)
VH: QVQLQQPGTELVKPGASVKLSCKASGYTFTSYWMHWVKQRPGQGLEWIGNINPSNGGTNYNEKFKSKATLTVDKSSTTAYMLLSSLTSEDSAVYYCARYYGSSFLYWYFDVWGTGTTVTVSS
VL: DIVMTQSHKFMSSSVGDRVSITCKASQDVGTAVAWYQQKPGQSPKILIYWASTRHTGVPDRFTGSGSGTDFTLTISNVQSEDLADYFCQQYSSYPTFGSGTKLEIKR
notes: Tested as hybridoma culture supernatant in the screening; also called antibody G
B2: antibody 1D1 (antibody, IgG2a, V domains shown)
VH: QVQLQQPGAEHVKPGASVKLSCKASGYTFTTYWIHWVKQRPGRGLEWIGRIAPNSGGTKYNENFKSKATLTVDRPSTTAYMQLSGLTSEDSAVYYCARWDFTFGTNLDYWGQGTTLTVSS
VL: DIVMTQSQKFMSTSVGDRVSITCKASQNVRTAVAWYQQKPGQSPKALIFLASNRHTGVPDRFTGSGSGTDFTLTITNVQSEDLADYFCLQHWTYPYTFGGGTKLEIKR
notes: Tested as hybridoma culture supernatant in the screening; also called antibody F
B3: antibody 1B3 (antibody, IgG2, V domains shown)
VH: QIQLVQSGPELKKPGETVKISCKASGYSFTAHGMSWVKQAPGKGLKWMGWINTYSGVPAYADDFKGRFAFSLETSPSTAFLQINNLKNEDTATYFCTRSHYDRKFGYWGQGTLVTVSA
VL: QAVVTQESALTTSPGETVTLTCRSSTGAVTTSNYANWVQEKPDHLFTGLIGDTNNRAPGVPARFSGSLIGDKAALTITGAQTGDEAIYFCALWYSNLWVFGGGTKLTVRG
notes: Tested as hybridoma culture supernatant in the screening; also called antibody E

The target of the test is T1, wild-type human Claudin 5 protein. The test is described as follows: FACS screening of hybridoma supernatants on human Claudin 5-expressing HT-1080 cells against mock cells; positive clones. How it is done: The cells were washed three times with 0.2% BSA-TBS, and then mixed with 100 μL of a secondary antibody solution (FITC conjugated goat anti-mouse IgG+IgM in 1% BSA-PBS (1:400)), followed by a reaction at 4° C. for 1 hour. The cells were washed with 0.2% BSA-TBS, and FACS analysis (FACS caliber, BD Bioscience) was performed.
In the case of B1, the binding result was “binds”.
In the case of B2, the binding result is recorded as “binds”.
With B3, the binding result is on record as “binds”.
